Laboratory results reported in patent publication US10245299B2, “Autoassembling peptides for the treatment of pulmonary bulla” (3-D MATRIX, LTD., priority 2014, dated 2019).
Where no end group is shown, it is not given here.

Columns and labels:
Assay type in all cases: physicochemical
[1] = Appearance of 1.5% peptide solutions with various salts at room temperature; details: for Appearance: KLD12 solution, room temperature
Experimental: The effect of salt ionic strength level on the properties of peptide solutions was evaluated to identify optimized salt ionic strength levels for the peptides as described herein. Increasing the salt ionic strength level of PuraMatrix® and other peptides may generally improve its function and mechanical strength for various clinical applications. To adjust the salt ionic strength of the peptide solutions by way of example, various salt buffer solutions including NaCl, KCl, MgCl2, CaCl2 and DPBS (10×) were added to 2 mL of 1.5% peptide solutions.

[2] = Rheological properties of pH adjusted peptide solutions and hydrogels; details: KLD12 1%, IEIK13 1%, PuraMatrix® 1% and 2.5%
Experimental: Based on the visual observation of the effect of pH level on the properties of the peptide solutions, the effect on the rheological properties of the peptide solutions after adjusting their pH level to 3.4 (PuraMatrix® and KLD12) or 3.7 (IEIK13) was evaluated. If the pH levels of peptide solutions are higher than 3.5 (PuraMatrix® and KLD12) or 3.7 (IEIK13), the peptide solution began phase separation becoming cloudy. The rheological properties of PuraMatrix®, KLD12 and IEIK13 solutions were higher at pH 3.4. The results are shown in FIG. 2 for KLD12 1%, FIG. 3 for IEIK13 1%, and FIGS. 4-5 for PuraMatrix® 1% and 2.5%, respectively. Stress sweep tests were performed at 10 rad/s. Frequency sweep tests were performed at 1 Pa.
Based on the results of the effect on the rheological properties of the peptide solutions after adjusting their pH level to 3.4 (PuraMatrix® and KLD12) or 3.7 (IEIK13), the effect on the rheological properties of the peptide solutions at various pH levels was evaluated. […] The rheological properties of peptides were evaluated at various concentrations using a rheometer (DHR-1, TA Instruments) with 20 mm plates. The results are shown in FIG. 6A for PuraMatrix® 2.5% solution and FIG. 6B for IEIK13 1.5% solution, respectively. Frequency sweep tests were performed from 1 rad/sec to 10 rad/sec at 1 Pa and the storage modulus at 1 rad/sec was selected for data.
Based on the results of the effect on the rheological properties of the peptide solutions after adjusting their pH level, the effect on the rheological properties of the peptide hydrogels at various pH after DMEM treatment was evaluated and compared to the effect on the rheological properties of the peptide solutions at various pH before DMEM treatment. […] The results are shown in FIGS. 7A-7B for PuraMatrix® and FIGS. 8A-8B for IEIK (SEQ ID NO: 5), respectively. Frequency sweep tests were performed from 1 rad/sec to 10 rad/sec at 1 Pa and the storage modulus at 1 rad/sec was selected for data.

[3] = Gelation of peptide solutions after saline buffer treatment, time sweep; details: saline buffer (0.15 M of NaCl); IEIK13 1.5%, KLD12 1.5%, PuraMatrix® 2.5% solution
Experimental: The effect of salt ionic strength level surrounding peptide solution on the properties of peptide solutions was evaluated to identify the possibility of peptide gelation when the peptide solution is placed into the environment where salt ionic strength level is high. […] Without pH effect, the effect of saline treatment on gelation of peptide solutions were evaluated. […] This is because IEIK13 is much more sensitive to salt ionic strength levels. Fast gelation of IEIK13 at the salt ionic strength level similar to body fluid isotonic salt level may generally improve its function and gelation speed for various clinical applications. The results are shown in FIG. 19 for IEIK13, KLD12 and PuraMatrix® solutions. Time sweep tests were performed at 1 rad/sec and at 1 Pa with 20 mm plates and 500 μm gap distance. […]

[4] = pH and appearance of 2.5% peptide solutions after adding 0.1 N NaOH
Experimental: To adjust the pH level of the peptide solutions by way of example, 0.1 N NaOH was added to 2 mL of 2.5% peptide solutions and their pH and appearance were measured.

Which results are given for KLDLKLDLKLDL [KLD12]?
Appearance ([1]; conc. 1.3%, KCl 0.4 M, ionic strength 0.4 M): Cloudy, phase-separated; Appearance ([1]; conc. 1.3%, NaCl 0.4 M, ionic strength 0.4 M): Cloudy, phase-separated; Appearance ([1]; conc. 1.32%, KCl 0.35 M, ionic strength 0.35 M): Slightly cloudy, brittle gel; Appearance ([1]; conc. 1.32%, NaCl 0.35 M, ionic strength 0.35 M): Slightly cloudy, brittle gel; Appearance ([1]; conc. 1.35%, KCl 0.3 M, ionic strength 0.3 M): Slightly cloudy, thick, stiffer gel; Appearance ([1]; conc. 1.35%, NaCl 0.3 M, ionic strength 0.3 M): Slightly cloudy, thick, stiffer gel; Appearance ([1]; conc. 1.38%, KCl 0.25 M, ionic strength 0.25 M): Clear, thick, stiffer gel; Appearance ([1]; conc. 1.38%, NaCl 0.25 M, ionic strength 0.25 M): Clear, thick, stiffer gel; Appearance ([1]; conc. 1.4%, KCl 0.2 M, ionic strength 0.2 M): Clear, thick, stiffer gel; Appearance ([1]; conc. 1.4%, NaCl 0.2 M, ionic strength 0.2 M): Clear, thick, stiffer gel; Appearance ([1]; conc. 1.42%, CaCl2 0.167 M, ionic strength 0.5 M): Cloudy, phase-separated; Appearance ([1]; conc. 1.42%, MgCl2 0.167 M, ionic strength 0.5 M): Cloudy, phase-separated; Appearance ([1]; conc. 1.43%, CaCl2 0.133 M, ionic strength 0.4 M): Slightly cloudy, thick, stiffer gel; Appearance ([1]; conc. 1.43%, CaCl2 0.15 M, ionic strength 0.45 M): Slightly cloudy, brittle gel; Appearance ([1]; conc. 1.43%, KCl 0.15 M, ionic strength 0.15 M): Clear, thick, stiffer gel; Appearance ([1]; conc. 1.43%, MgCl2 0.133 M, ionic strength 0.4 M): Slightly cloudy, thick, stiffer gel; Appearance ([1]; conc. 1.43%, MgCl2 0.15 M, ionic strength 0.45 M): Slightly cloudy, brittle gel; Appearance ([1]; conc. 1.43%, NaCl 0.15 M, ionic strength 0.15 M): Clear, thick, stiffer gel; Appearance ([1]; conc. 1.44%, CaCl2 0.117 M, ionic strength 0.35 M): Clear, thick, stiffer gel; Appearance ([1]; conc. 1.44%, MgCl2 0.117 M, ionic strength 0.35 M): Clear, thick, stiffer gel; Appearance ([1]; conc. 1.45%, CaCl2 0.1 M, ionic strength 0.3 M): Clear, thick, stiffer gel; Appearance ([1]; conc. 1.45%, KCl 0.1 M, ionic strength 0.1 M): Clear, thick, stiffer gel; Appearance ([1]; conc. 1.45%, MgCl2 0.1 M, ionic strength 0.3 M): Clear, thick, stiffer gel; Appearance ([1]; conc. 1.45%, NaCl 0.1 M, ionic strength 0.1 M): Clear, thick, stiffer gel; Appearance ([1]; conc. 1.46%, CaCl2 0.083 M, ionic strength 0.25 M): Clear, thick, stiffer gel; Appearance ([1]; conc. 1.46%, MgCl2 0.083 M, ionic strength 0.25 M): Clear, thick, stiffer gel; Appearance ([1]; conc. 1.47%, CaCl2 0.067 M, ionic strength 0.2 M): Clear, thick, stiffer gel; Appearance ([1]; conc. 1.47%, MgCl2 0.067 M, ionic strength 0.2 M): Clear, thick, stiffer gel; Appearance ([1]; conc. 1.48%, CaCl2 0.05 M, ionic strength 0.15 M): Clear, thick, stiffer gel; Appearance ([1]; conc. 1.48%, KCl 0.05 M, ionic strength 0.5 M): Clear, thick, stiffer gel; Appearance ([1]; conc. 1.48%, MgCl2 0.05 M, ionic strength 0.15 M): Clear, thick, stiffer gel; Appearance ([1]; conc. 1.48%, NaCl 0.05 M, ionic strength 0.5 M): Clear, thick, stiffer gel; Appearance ([1]; conc. 1.5%, CaCl2 0 M, ionic strength 0 M): Clear, thick gel; Appearance ([1]; conc. 1.5%, KCl 0 M, ionic strength 0 M): Clear, thick gel; Appearance ([1]; conc. 1.5%, MgCl2 0 M, ionic strength 0 M): Clear, thick gel; Appearance ([1]; conc. 1.5%, NaCl 0 M, ionic strength 0 M): Clear, thick gel; salt ionic strength increase that did not change the clear color of the solution (apparent stiffness increased) ([1]; depending on different salts, 1.5% peptide solutions): 0.25˜0.35 M; rheological properties of solutions at pH 3.4 [2]: higher; gelation after saline buffer treatment [3]: no or negligible gelation; Appearance ([4]; 0.1N NaOH 0 μL/mL, conc. 2.5%, pH 2.1): Clear, thick gel; Appearance ([4]; 0.1N NaOH 50 μL/mL, conc. 2.38%, pH 2.4): Clear, thick gel; Appearance ([4]; 0.1N NaOH 100 μL/mL, conc. 2.27%, pH 2.6): Clear, thick gel; Appearance ([4]; 0.1N NaOH 250 μL/mL, conc. 2.0%, pH 4.0): Slightly cloudy,; Appearance ([4]; 0.1N NaOH 300 μL/mL, conc. 1.92%, pH 4.7): Cloudy, brittle gel; Appearance ([4]; 0.1N NaOH 350 μL/mL, conc. 1.85%, pH 5.2): Cloudy, phase-; Peptide solution pH ([4]; 0.1N NaOH added in 2.5% solution 0 μL/mL, conc. 2.5%): 2.1; Peptide solution pH ([4]; 0.1N NaOH added in 2.5% solution 50 μL/mL, conc. 2.38%): 2.4; Peptide solution pH ([4]; 0.1N NaOH added in 2.5% solution 100 μL/mL, conc. 2.27%): 2.6; Peptide solution pH ([4]; 0.1N NaOH added in 2.5% solution 150 μL/mL, conc. 2.17%): 2.9; Peptide solution pH ([4]; 0.1N NaOH added in 2.5% solution 200 μL/mL, conc. 2.08%): 3.3; Peptide solution pH ([4]; 0.1N NaOH added in 2.5% solution 225 μL/mL, conc. 2.04%): 3.6; Peptide solution pH ([4]; 0.1N NaOH added in 2.5% solution 250 μL/mL, conc. 2.0%): 4.0; Peptide solution pH ([4]; 0.1N NaOH added in 2.5% solution 300 μL/mL, conc. 1.92%): 4.7; Peptide solution pH ([4]; 0.1N NaOH added in 2.5% solution 350 μL/mL, conc. 1.85%): 5.2; Appearance ([4]; pH 7.0): Cloudy, phase-
